Data taken from PMC5986701, “A quantitative characterization of interaction between prion protein with nucleic acids”.

B1: Lef-DNA (dsDNA)
DNA 1: GAGCTTCAAAGGGTG
DNA 2: CACCCTTTGAAGCTC
B2: NC-DNA (dsDNA)
DNA 1: GACTTGTGGAAAATCTCTAGCAGTGCAT
DNA 2: ATGCACTGCTAGAGATTTTCCACAAGTC
B3: MNV (structured_RNA)
RNA: GGGUUCAUAGCCUAUUCGGCUUUUAAAGGACCUUUUUCCCUCGCGUAGCUAGCUACGCGAGGUGACCCCCCGAAGGGGGGUGCCCC
B4: RQT157 (RQ157) (structured_RNA)
RNA: GGGGUUUCGAACCGGAAUUUGAGGGAUGCCUAGGCAUCCCCCGUGCGUCCCUUUACGAGGGAUUGUCGACUCUAGAGGAUCCGGUACCUGAGGGAUGCCUAGGCAUCCCCGCGCGCCGGUUUCGGACCUCCAGUGCGUGUUACCGCACUGUCGACCC
B5: RQ11+12 (structured_RNA)
RNA: GGGGUUUCCAACCGGAAUUUGAGGGAUGCCUAGGCAUCCCCCGUGCGUCCCUUUACGAGGGAUUGUCGACUCUAGUCGACGUCUGGGCGAAAAAUGUACGAGAGGACCUUUUCGGUACAGACGGUACCUGAGGGAUGCCUAGGCAUCCCCGCGCGCCGGUUUCGGACCUCCAGUGCGUGUUACCGCACUGUCGACCC

Target: T1, alpha-PrP (human recombinant prion protein) (human, UniProt P04156 23-230)
Assay: fluorescence anisotropy; pH 5
Settings: not given

Binder | Kd [nM]
B1 | 1250 ± 320
B2 | 1110 ± 230

Same assay, conditions: pseudoknot

Binder | Kd [nM]
GUCAAGGACAAGGUCAAGGUCAAGGUUCUUUUACUGCUUUGGGC (structured_RNA) [Ym44] | 1630 ± 400
GCCUCAUGGUGGUGGCUGGGGGCAGCCUCAUGGUGGUGGCUGGGG (structured_RNA) [Hm45] | 2900 ± 410
CAGGGUGGCACCUGGGGGCAGCCCCACGGUGGUGGCUG (structured_RNA) [Mm38] | 3820 ± 400
GCCCCAUGGAGGUGGCUGGGGCCAGCCUCAUGGAGGUGGCUGGGGC (structured_RNA) [Cm47 (Cm48 in Table 2)] | 1510 ± 350

Target: T1, alpha-PrP (human recombinant prion …)
Assay: fluorescence anisotropy; pH 7.2
Settings: not given

Binder | Kd [nM]
B1 | 5730 ± 570
B3 | 4150 ± 610
B4 | 2890 ± 1500
B2 | 1290 ± 210
B5 | 2200 ± 1500

Same assay, conditions: pseudoknot

Binder | Kd [nM]
GUCAAGGACAAGGUCAAGGUCAAGGUUCUUUUACUGCUUUGGGC (structured_RNA) [Ym44] | 1790 ± 570
GCCUCAUGGUGGUGGCUGGGGGCAGCCUCAUGGUGGUGGCUGGGG (structured_RNA) [Hm45] | 3340 ± 150
GCCCCAUGGAGGUGGCUGGGGCCAGCCUCAUGGAGGUGGCUGGGGC (structured_RNA) [Cm47 (Cm48 in Table 2)] | 1610 ± 400
